Test results reported in patent publication US8039438B2, “Synthetic peptides that cause F-actin bundling and block actin depolymerization” (The Regents of the University of California, priority 2003, dated 2011).

Key:
[1] = biological target: T1, purified rabbit muscle actin (Oryctolagus cuniculus, UniProt P68135); experiment: Negative stain electron microscopy of actin polymerized in presence of peptide; format: biochemical; details: co-polymerization, molar ratio peptide:actin=2, negative stain electron microscopy
T1 construct: purified rabbit muscle actin in vitro were visualized by negative stain electron microscopy; from tissue; host or cells: rabbit muscle
From the text: The actin bundles caused by co-polymerization of SS12 peptide with purified rabbit muscle actin in vitro were visualized by negative stain electron microscopy (FIG. 5). The bundles still show overall filamenteous structure about 3 times the width of actin filaments polymerized in vitro in the absence of SS12 peptide (FIG. 5A, B). The surface of the bundles is not smooth, but irregular, resembling attempts to branch or attachments of short actin bundles to the sides of the long ones (FIG. 5C). The peptide-bundled actin filaments are much shorter than the control filaments as visualized with rhodamine-phalloidin by fluorescence microscopy (data not shown).
Purified rabbit actin was polymerized in the presence or absence of the SS12 peptide and by absorption applied to a carbon coated copper grid. Negative contrastation was carried out with Pb-citrate and the dried grid was viewed in an Electron microscope at high magnifications (12,000× and 65,000×). […] Higher magnification identified a “modulated” decoration of the otherwise smooth filaments.

[2] = biological target: T2, rabbit muscle actin (Oryctolagus cuniculus, UniProt P68135); experiment: In vitro bundling of actin by peptides (co-polymerization, differential centrifugation, SDS gel); format: biochemical
T2 construct: Purified rabbit muscle actin (Cytoskeleton Inc., Denver, Mo.); purchased Cytoskeleton Inc; host or cells: rabbit muscle
Description: The peptides in Table 2 were added to polymerised actin in vitro at different molar ratios. Centrifugation was used to separate fractions containing F-actin, G-actin and bundled actin, which were then run out on […]. Purified rabbit muscle actin (Cytoskeleton Inc., Denver, Mo.) was depolymerized in Low Salt Buffer [LSB; 5 mM Tris-HCl, pH 8.0, 0.2 mM CaCl2, 0.2 mM ATP, 0.5 mM DTT, mM sucrose) for 1 h on ice and denucleated by centrifugation for 1 h at 100,000×g, 4° C. 13 μM monomeric actin was polymerized in vitro by addition of 1/50 vol. […] The samples were centrifuged for 15 min at 10,000×g at room temperature to pellet “bundled filaments”. The resulting supernatant was centrifuged for 1 h at 100,000×g at room temperature to separate F-actin filaments […]. The fractions were boiled in SDS-sample buffer and analyzed on a 10% SDS-Polyacrylamide gel stained with Coomassie.

[3] = tested on: MDA 231 cells; experiment: Actin reorganization in MDA 231 cells electroporated with peptide, rhodamine-phalloidin stained; format: cell-based, human
Description: Referring now to FIG. 2, it can be shown that treatment with an active peptide results in actin organization in human mammary epithelial tumor cells. MDA 231 cells were electroporated with SS1 (panel A) or SS12 (panel B), fixed, and rhodamine-phalloidin stained. Control epithelial tumor cells were treated with SS1 (SEQ ID NO: 9) resulting in no effect on actin-filled lamellipodia (or ruffling) characteristic of crawling cells.
MDA 231 cells are a particularly aggressive tumor cell line crawling and moving from between tissues.

[4] = tested on: MCF7 cells; experiment: Cytokinesis in MCF7 cells imaged after addition of peptide; format: cell-based; details: MCF7 cells electroporated with GFP-actin, peptide in DMSO, imaged up to 4 hours
Description: MCF7 cells were electroporated with GFP-actin and imaged (image not shown). After addition of peptide in DMSO, the MCF7 cells were continuously imaged for up to 4 hours. […] The actin filaments within the cells were observed by fluorescence and had the appearance of spikes. Thus it appears that treatment by the active peptide results in inhibition of cytokinesis and blocks cell division.

[5] = tested on: dextran-labeled electroporated cells; experiment: Change in number of dextran-labeled cells after electroporation with peptide; format: cell-based; details: for % change in cell number: dextran-labeled cells counted before and after 18 hrs incubation
Description: Electroporated cells were treated with fluorescent dextran plus peptide so those cells receiving the peptide could be identified. Typically a very small number of cells successfully incorporate substance during electroporation, making it difficult to identify those receiving peptide. Typically one sees 10-20% incorporation. But, there is good evidence showing that if a cell incorporates one component in buffer, it will incorporate all components. Thus, dextran can be used to identify those cells receiving peptide. After electroporation of cells with fluorescent dextran and the active peptide SEQ ID NO: 12, the dextran-labeled cells were initially counted and then incubated for 18 hrs. After incubation overnight, the dextran-labeled cells were once again counted. The following Tables 4 and 5 show the average change in dextran-labeled cells after the cells are electroporated and the peptide has invaded the cell body. The cell numbers of the SS12 treated peptide seemed to fluctuate after incubation with various concentrations of the SS12 peptide.

- width of bundles relative to actin filaments polymerized in the absence of peptide [1]: about 3 times the width
- bundling of actin during in vitro polymerization [2]: most active
- bundled actin upon inducing polymerization ([2]; 1:1 molar ratio peptide:actin, polymerization induced (PI +), FIGS. 6C, 6D): the bulk of the actin is bundled
- bundled actin with peptide alone ([2]; 1:1 molar ratio peptide:actin, polymerization not induced, FIGS. 6C, 6D): half of the actin bundled
- In vitro actin bundling activity ([2]; Tables 2 and 3, peptide co-polymerized with actin in vitro): active
- free F-actin band ([2]; molar ratio 10:1, FIG. 6E): very small bands
- free F-actin band ([2]; molar ratio 100:1, FIG. 6E lane 6): clearly no band of free F-actin
- form of actin ([2]; molar ratio peptide to actin 50, FIG. 6F): all of the actin is in the bundled form
- activity designation of the peptide in the sequence list (active / less active / inactive) ([2]; summary sequence table): SS12 active
Sequence: GIVRKWISRFEVWPYL (SS12 active synthetic peptide)
- cell movement ([3]; MDA 231 cells after peptide treatment): ceased movement
- effect on actin-filled lamellipodia ([3]; MDA 231 cells electroporated with peptide): no longer have lamellipodia
- cytokinesis and nuclear division [4]: cytokinesis but not nuclear division was blocked
- increase in cell population after incubation ([5]; compared with SS1 control peptide-treated cells): did not exhibit the expected increase in cell population
- % change in cell number [5]: −12.5%
- % change in cell number ([5]; peptide concentration 0.2 μM): +13.21%
- % change in cell number ([5]; peptide concentration 1.0 μM): −1.5%
- % change in cell number ([5]; peptide concentration 10.0 μM): −8.6%
